Target: the molecule itself
Assay: cryo-EM structure

B1: MtbClpX^E187Q (enzyme)
chain: not shown
notes: also called Walker B motif mutant MtbClpX
stoichiometry N: 6
